This is an account of results in a protein production outcome set (Wang et al. 2014).
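Further: failed if final PepcDB status was selected cloned or expressed and not failed if soluble or beyond.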

This data set can be described thus: label from the status in PepcDB records.
As to “AIDHRIQYLAYREIKAAVETNKAKAGSVVVLDAHTGELLALANYPSFNPNNRSGVTPEMMRNRGVIDLFEPGSTMKPLSISLALEHGKANLNTVLDTHSYMIGPATIRDVSPQASLGILGIIQKSSNVGTSKLALLNSPEEFWKHYDALGFGRAPETGFPGEASGRLRDWHKWRPIEQATMSFGYGVSVSLIQMARAYTIFANDGVMLPVALYKTANPMPGKRVLSEKTAHEMRDLLIANSQPGGGAVGGRIIGYSIGGKSGTARKLEGRAYVANKHRALFMGFAPGHSPKVIVAVMIDEPSAGKYYGGAVSAPVFSQVAGGALRVLNIAPD”, the protein production entry is on record as “failed”.

On to “AIGMALVGTEGQWLQVNKSLSHFLGYSQDELRTMTFQQLTWPEDLNNDLEQLNMLVRGDINSYSMEKRYYTRNGDVVWALLAVSLVRHKDNKPLYFIAQIEDINDLKQSEQENQRLMERITQANDALFQEKERLHITLDSIG”, for which the protein production result is recorded as “failed”.

For “AIPQHEHPMIIAGFGRFGQIIARNARLNHIGFTAIDNNLQQIDFVRRYGGTLYYGDITQPDILRAAGIEKAKVFILAIDDVEDSMNVARHIRLNYPQITLMVRARDRYQVHLLRDLGVEHIWRETYLSSLGMAYRALCELGIP”, the protein production result is reported as “failed”.

With “AISPNRASHTLADIRNQLSTRILILDGAMGTMIQGYKLEEADYRGERFKDWHTDVKGNNDLLVLTQPHIIKQIHTDYLLAGADIIETNTFNATTIAMADYDMQSLSAEINREGARLAREACDAIEQATGKPRYVAGVLGPTNRTCSISPDVNDPGFRNIHFDELVTAYCESTRALIEGGADIIMVETIFDTLNAKAALFAIETVFDELFGANSPARLPVMISGTITDASGRTLTGQTTEAFYNSLRHIKPLSIGLNCALGPKELRPYVEELSRIAECYVSAHPNAGLPNEFGGYDETPEDMAKVIQEWAREGMLNIIGGCCGSTPEHIKVIREAVEQFAPRVLPEIPVACRLAGLEPLTIDAQTLFVNVGERTNVTGSAKF”, the protein production entry was “failed”.

With “AIVHEMLKDTHPQYAYRSGMSAQEFTQWQDGVRAAMVEIMKFPEIKRQPSPVCVKTEKKEGYILEKWEFYPFPKSVSTFLVLKPEHLKGAVPGVLCIPGSGRTKEGLVGEPGICDKLTEDYNNPKVSMALNMVKEGYVAVAVDNAAAGEASDLECYDKGWNYDYDVVSRFLLELGWSWLGYTSYLDMQVLNWMKAQSYIRKDRIVISGFSLGTEPMMVLGVLDKDIYAFVYNDFLCQTQERAVVMTKPDKENRRPFPNSIRHLIPGYWRYFNFPDVVASLAPRPIIFTEGGLDRDFRLVQSAYAASGKPENAEFHHYPKFADKAVRKDVEHLDEGLDSKTYFEAVNVDPPSHYFKNELVIPWLRKVLK”, the protein production result is “not failed”.

Regarding “AIVNASNNAILTTSITGEILSANPAAVQMFQSLEQELKGISVSRLFAEKDEMHFFFDFQSNVYSLQRKALGISVECLSLRSDGTEFPAQAELQWADRAKQPLIVITFINLS”, the protein production result was “failed”.

As for “AIYVDLPNRQLKVKVADRRVISTTDAERQAVTPPGLQEAINDLVKKYTLARAFVRPSGTEDIVRVYAEANSQESADRLAYEVSLLVFQLAGGIGERPQP”, the protein production result was “not failed”.

Take “AKGKNLIIVQLESFQRNLTNIKIDGQSITPTLDSLQNETMYSNKFFQTVSKSNTADAEWSVYTSTFPSGYYTNTQTYGDRVIPSMPRLLGKNDYTTSTFHTNDASFYNRDEFYPAVGFDKFYDRKFFGDEDVIGFSPSDEVLYNKAFPILEKQYKNNQKFYAQLISVSSHMPFNIPEEKQEINLPSDLKDTELGNYFEAVHYADKQLGAFIQKLKDSGIWEDSVVVFYGDHHIIKTDQLPEEQKKYVNRSTELKADPADDYRIPFFLHYPGMKNPGEIKNVGGEIDIMPTVMNLLGINTGNQIMFGTDILNSTNNYVPERYTMPEGSYFTDSYMYQP”: the protein production entry is given as “failed”.

On to “AKGKNVIVLHLESFQQFLIDYKLNIDGKQYEVTPFLNSLYHSKETFAFSNFFHQVKAGKTSDAETLMETSLFGLNQGSFFVQYGGDNTQQAAPHILKDTNNYSSAVFHGNIGTFWNRNNAYKQLGYQHFFDQSYMSKMTKDNSFQYGLNDKVMFADSIKYLEHMQQPFYTKFITVSNHYPYQSLDGDDTGFPLAKTEDKTINGYFATANYLDAAIKDFFDYLKASGLYKNSIIVMYGDHYGIANSRNTDLAPLLGKDSQTWTEYNNAMLQRVPYMIHVPGTDKGFISNTYGGEVDALPTLLHLLGIDNKNYIELGQDLLSPNNKQLVAFRSEGNYITPNYTSYSGRVYDTKTGV”, for which the protein production entry is recorded as “failed”.

As to “AKGLRTVKTCVGSDWCRFGTQDSTGLGIRIERFMWGSWTPAKLKMAVSGCPRNCAEATCKDIGVICVDSGFEIHFAGAAGLDIKGTEVLGLVRTEDEALEYIVALTQMYREQARYLERIYKWAKRIGLEEIRRQIMGDAEK”, the protein production result was “failed”.

With “AKLMNRFSTTKLNPLIGSAGVSAVPMAARVSNKVGLEANAQNFLLMHAMGPNVAGVIGSAVAAGVMIKYVMG”, the protein production result is on record as “failed”.

Turning to “ALQAGRLGSTVFVANLDYKVGWKKLKEVFSMAGVVVRADILEDKDGKSRGIGTVTFEQSIEAVQAISMFNGQLLFDRPMHVKMDERALPKGDFFPPERPQQ”, the protein production entry is recorded as “not failed”.

Regarding “ALTGHTVLVGWDGEASERIVELLGQDTSTSRAGLVICDSIITENPLPGRASFIKGDSLDSPAVLSRAGVVGAQRILVHTQSDSLTLAIVLTLKSLGPTGHVVAHFNNSERAALARTYAPELECTSNMAIEMLVRSAQDPGSSSVIT”, the protein production entry was “failed”.

In the case of “ANSQLRKQRDENAELAERLASLLKMLPAGVVELSPDGRVIAENLAAESLISGCYIGEYWEAVLERLLTQEADGSFALEAGGESRRLTLQYQDLPASGGRIVLIHDV”, the protein production entry is reported as “failed”.

For the sequence “ANVKLLLPYILKWEGGFVHDPADAGGATNKGVTIATWKRVGYDKDGDGDIDVEDLKLLTDDDVLNRVLKPFYWDRWKADLIESQKVANILVDWVWGSGKYGIVIPQRILGVQADGIVGNKTLQAVNSADPDELFESIFDARREFLEDITARSIKKYEDSIGRKATERELLRHTNKRFLRGWLNRLEDI”, the protein production entry is recorded as “not failed”.

Take “AQGVGVEAILLLRRECQASHEDALHLGLAEHAPVIELQTLRKLDGQAVSLIFHRYSAVYHELLADYQGGSVRQYLAECGLPLSRAQSLIGARLPSREEAGLLLMPRHMPALTVLTVSCDGAGQPVELSRSVSRSDRFQYQVATAIPTR”: the protein production entry is on record as “not failed”.

“AQSILEKADEIRFPQDSFQVNVAIRTAAPDHAEDLYRYQVLSKGNENSIVMITEPASERGQAILMKGRDLWVFMPSVSQPIRLSLSQRLTGQVANGDIARANFTGDYHPQLLRNESIDDEDYYVLELTGIDRSVTYQKVLLWVNQSNFRPYKAEFYSVSGRLLKTSRYENFDNILGEMRPTRIIMEDALKSGEVSVLDYSDMKLRDLPDKIFTKDYLKR”: the protein production entry was “not failed”.

“AQTDPSQLKKEGSDAFNAKNYPVAYAKFSEYLKQTNNQDSAIAYYCGMAADEVKKYAEAVTFFDIAIQKKFNIGNAYARKALALDAMKKTDEYVATLEEGLKVDPDNKTMIKNYGLHYLKAGIAAQKAGKVEEAEECFKKVIPLDHKTYKTNALYSLGVLCYNDGANILKKAAPLANSDADKYAAEKEKADGRFKEAIGYLEEATKVSPEDTKSKTMLSQVQAAMK”: the protein production result is “not failed”.

With “ARHPQRVVAAILVAPASPESFSENGHILPEHDDTPTIRNLLPKQTLGICGLVIASENDPWMPFNQAASLAKSFGLPTINLGLSGHINVDSGHGQWPLIDVLVGNFL”, the protein production result is “failed”.

Take “ARIARVVVHPDYRSDGLGQLSVKAALEWIAERRIPEMRKKKHFVETIAQMARYNPFFEKVGFRYVWETASG”: the protein production result was “failed”.

Take “ARLEPLLIGGLYPKNLEDRILIKLDQAPPYLLDGLVAVEDRDFYHHFGVSPKSIARAIWVNTSQGQMRQGGSTLTQQLVKNFYLTNERSLSRKLTEAMMAVLLEIHYSKQEILEAYLNEVFVGQDGQRAVHGFGLASQYFFSQPLSELKIHQVAMLVGLVKGPSFYNPRRNP”: the protein production result is given as “failed”.

On to “ARLVQLSRHSIAFPSPEGALREPNGLLALGGDLSPARLLMAYQRGIFPWFSPGDPILWWSPDPRAVLWPESLHISRSMKRFHKRSPYRVTMNYAFGQVIEGCASDREEGTWITRGVVEAYHRLHELGHAHSIEVWREDELVGGMYGVAQGTLFCGESMFSRMENASKTALLVFCEEFIGHGGKLIDCQVLNDHTASLGACEIPRRDYLNYLNQMRLGRLPNNFWVPRCLFSPQE”, for which the protein production entry is reported as “not failed”.

For the sequence “ARNAEAEGRLVRECRELLERHAFEELTVPDIAECLGVSVRTLQTALRAETGATPSELLRSIRLDRAREMLLEANPREQSVTAVAEQCGFTHQGRFSALYVKAFGELPSESLRR”, the protein production result is “failed”.

Regarding “ARNAVMVIDGIPVTKSSNTINDALEGVTFNLLKANPGTTTTLTVEKDKSNVEAAVNAFVKAYNDLEKTIGNLSRYDAANKQASVLTGDSTMRMIQNRMRAMLGGNQSAAGGINSLSELGISFQKDGTLALDNNKLSAVLNNPDKNIAAFFTTQGGDDTTSVEGFASRLSELIDGMTRSDGLISSRMDGINSTIKGIGKQREALEFRLESVEKRLRAQFTALDTMIASMNQ”, the protein production entry is “not failed”.

With “ARQVTPGQVMVASTVAKLATIIDGEEDSTQRMGFETILPLREGNGPTLFCFHPASGFAWQFSVLSRYLDPQWSIIGIQSPRPHGPMQTAANLDEVCEAHLATLLEQQPHGPYYLLGYSLGGTLAQGIAARLRARGEQVAFLGLLDTWPPETQNWQEKEANGLDPEVLAEINREREAFLAAQQGSTSTELFTTIEGNYADAVRLLTTAHSVPFDGKATLFVAERTLQEGMTPEQAWAPWIAELDIYRQDCAHVDIISPEYFKEIGPLINTQINN”, the protein production result is recorded as “failed”.

As for “ASISEVAAITGLTQDTLRWYEREGMIPTIARGSDRRRRYSERDVRLIELLVKLRTTGMPTSDMQRFAVLLAGGAETHERRLALLLAHRERILAQQARLDDALAALDTKVDHYR”, the protein production result is listed as “failed”.

On to “ASRDLLKEFPQPKNLLNSVIGRALGISHAKDKLVYVHTNGPKKKKVTLHIKWPKSVEVEGYGSKKIDAERQAAAAACQLFKGWGLLGPRNELFDAAKYRVLADRFG”, for which the protein production entry is “not failed”.

Take “ATDVAARGLDISGVTHVYNYDIPQDPESYVHRIGRTGRAGKEGMAITFVQPREMGYLRIVEETTKKRMQPLQAPTWDEAFAGQLRVATEKIQEAITEENLADYKTFANELLEKYDATDIAAAMLKMLAKEPDKTPVHITEERPLPSRGGGGYKGK”: the protein production result is “not failed”.

“ATITHQEKLLTVDTTAHPFLKALGGHEGTDIFPLFMDPYNGLMVMRASFAPGLTLPLHFHTGTVHMYTISGCWYYTEYPGQKQTAGCYLYEPGGSIHQFNTPRDNEGQTEVIFMLSGCNVNFTQDGTYLGLSDAGVIKNWVDRAIREQDNGLRYIAAAVPTYAA”: the protein production entry was “not failed”.

Regarding “AVGSGSEGFIVRLPAALLFKEGGIEVENSDGFLFVKRMAEIVNRLPKDVHVEVRGHTDTLPLPAQAPQDKLELTAKRALSVSKLLVKEGIDPKRITTVGRGDQDPLTHARTPEAQESNRRVDIYLYPKE”, the protein production result is recorded as “not failed”.

Turning to “AVNEENIMIPKGVEVYEITGPYFFGIATKFEETMAQLGDRPNVRIIRMRKVPFIDSTGIHNLTTLCEMSQKEKITVILSGVNEKVYKVLEKSGFYELLGKENICPNFKIALDRAEEV”, the protein production entry was “failed”.
